According to patent US20240390418A1 (MINERVA BIOTECHNOLOGIES, published 2024):
Each block holds one binder with its values, some of them ahead of it.

B1: C-10 peptide (peptide)
peptide: GTINVHDVETQFNQYKTEAASRYNLTISDVSVSDV
notes: also called PSMGFR C-10; PSMGFR minus 10 amino acids from the C-terminus

Tests used:
dimeric NME1 = target: T1, dimeric NME1 (Homo sapiens (Human), UniProt P15531 1-152, limits assumed); test: ELISA, peptide on plate (FIG. 2D)
T1 construct: also called NM23-H1 dimers; dimeric NM23-H1
Method: (§1) FIGS. 2A-2I show results of ELISA assays. MUC1* peptides PSMGFR, PSMGFR minus 10 amino acids from the N-terminus aka N-10, or PSMGFR minus 10 amino acids from the C-terminus, aka C-10 are immobilized on the plate and the following are assayed for binding: NME7-AB (FIG. 2A), MNC2 monoclonal antibody (FIG. 2B), MNE6 monoclonal antibody (FIG. 2C), or dimeric NME1 (FIG. 2D). […] MUC1* peptides PSMGFR minus 10 amino acids from the N-terminus aka N-10, or PSMGFR minus 10 amino acids from the C-terminus, aka C-10, are immobilized on the plate and the following are assayed for binding: MNC3 (FIG. 2E) and MNC8 (FIG. 2F).

NME7AB = target: T2, NME7AB (Homo sapiens (Human), UniProt Q9Y5B8 92-376); test: ELISA, peptide on plate (FIG. 2A)
T2 construct: NME7A in the text appears to be NME7AB; also called NM23-H7; NME7A
T2 sequence: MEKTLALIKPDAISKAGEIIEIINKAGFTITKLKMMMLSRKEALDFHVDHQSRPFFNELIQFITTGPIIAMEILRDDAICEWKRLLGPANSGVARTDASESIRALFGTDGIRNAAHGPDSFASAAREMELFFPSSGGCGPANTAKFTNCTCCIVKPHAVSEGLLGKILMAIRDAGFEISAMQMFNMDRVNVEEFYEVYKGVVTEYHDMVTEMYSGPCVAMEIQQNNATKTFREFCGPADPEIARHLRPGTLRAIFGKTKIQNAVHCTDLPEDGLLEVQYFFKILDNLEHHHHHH
Method: as §1

N-19 peptide = target: T3, N-19 peptide; test: ELISA, peptide on plate (FIG. 69)
T3 peptide: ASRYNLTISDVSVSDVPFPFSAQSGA

N-19/C-5 peptide = target: T4, N-19/C-5 peptide; test: ELISA, peptide on plate (FIG. 69)
T4 peptide: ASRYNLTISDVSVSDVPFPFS

N-10/C-5 peptide = target: T5, N-10/C-5 peptide; test: ELISA, peptide on plate (FIG. 69)
T5 peptide: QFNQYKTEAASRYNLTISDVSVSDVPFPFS

C-10 peptide [1] = target: B1; test: ELISA, peptide on plate (FIG. 69)
N-30 peptide = target: T6, N-30 peptide; test: ELISA, peptide on plate (FIG. 69)
T6 peptide: SVSDVPFPFSAQSGA

N-10 peptide [2] = target: T7, N-10 peptide; test: ELISA, peptide on plate (FIG. 69)
T7 construct: also called PSMGFR N-10; PSMGFR minus 10 amino acids from the N-terminus
T7 peptide: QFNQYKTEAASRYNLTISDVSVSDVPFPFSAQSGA

N-26 peptide = target: T8, N-26 peptide; test: ELISA, peptide on plate (FIG. 69)
T8 peptide: ISDVSVSDVPFPFSAQSGA

PSMGFR peptide [3] = target: T9, PSMGFR peptide; test: ELISA, peptide on plate
T9 construct: also called MUC1* peptide
T9 peptide: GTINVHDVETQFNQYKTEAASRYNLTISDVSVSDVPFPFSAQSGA

[4] = target: T10, MUC1* expressed on HCT-116 cells transfected with MUC1* (extra cellular domain is just the PSMGFR sequence) (Homo sapiens (Human), UniProt P15941 1110-1255); test: denaturing Western blot of cell lysates, linear epitope test (FIG. 74)
T10 construct: In Western blot rows the same protein stood denatured in cell lysate; also called HCT-MUC1*; HCT-FLR
T10 sequence: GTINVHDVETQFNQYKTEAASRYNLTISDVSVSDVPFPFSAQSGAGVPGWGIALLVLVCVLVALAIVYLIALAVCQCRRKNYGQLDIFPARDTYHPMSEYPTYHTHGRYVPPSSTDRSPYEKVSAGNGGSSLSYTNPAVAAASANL
Method: Antibodies were tested to determine whether they recognize a linear or a conformational epitope. Only antibodies that recognize a linear epitope work in Western blots when using denaturing gels. […] The antibodies tested for comparison are MNC2 and MNE6, which were known to only recognize a conformational epitope, SDIX which is a polyclonal antibody raised against PSMGFR and VU4H5, which is a commercially available monoclonal antibody that recognizes the tandem repeats of full-length MUC1 (FIG. 71A-71D). […] The SDIX polyclonal antibody recognizes HCT-MUC1* but not full-length MUC1 and VU4H5 only recognizes full-length MUC1. These same antibodies were also tested for their ability to work in Western blots of two breast cancer cell lines 1500, aka Zr-75-1, and T47D cells and show the same binding pattern (FIG. 71E-71H).
Antibodies that were raised against the PSMGFR peptide were tested the same way in Western blots (FIG. 72A-72P). […] Antibodies that were raised against the N+20/C-27 peptide were tested the same way in Western blots (FIG. 73A-73J). […] Antibodies 1E4 and 45C11 may recognize a conformational epitope. Antibodies that were raised against the N+9/C-9 peptide were tested the same way in Western blots (FIG. 74A-74H). […] These antibodies may recognize a conformational epitope.

N+20/C-27 peptide [5] = target: T11, N+20/C-27 peptide; test: ELISA, peptide on plate (FIG. 66)
T11 peptide: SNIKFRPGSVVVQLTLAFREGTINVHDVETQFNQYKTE

N+9/C-9 peptide [6] = target: T12, N+9/C-9 peptide; test: ELISA, peptide on plate (FIG. 66)
T12 peptide: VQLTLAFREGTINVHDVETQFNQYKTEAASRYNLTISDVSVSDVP

[7] = target: T10, MUC1* expressed on HCT-116 cells …; test: flow cytometry (FIG. 4D-4F)
C-10 peptide [8] = target: B1; test: peptide ELISA
PSMGFR peptide [9] = target: T9, PSMGFR peptide; test: ELISA, peptide on plate (FIG. 2C)
N-10 peptide [10] = target: T7, N-10 peptide; test: ELISA, peptide on plate (FIG. 2B-2C)
N+20/C-27 peptide [11] = target: T11, N+20/C-27 peptide; test: ELISA, peptide on plate (FIG. 63)
Method: (§2) ELISA assays were performed to determine if, in addition to recognizing their immunizing peptide, they recognized PSMGFR, N-10 or C-10. In addition, they were tested for their ability to bind to N+20/C-27, N+9/C-9. We first did the ELISA assay on our set of reference antibodies, MNC2, MNE6, which we know are cancer-specific plus MNC3, which we know recognizes stem cells and progenitor cells (FIG. 63A-63B). None of the reference antibodies bound to the N+20/C-27 peptide. MNC2 and MNE6 cannot bind to PSMGFR peptides with 27, 10 or 9 C-terminal deletions, however, MNC3 binds to C-10 and to N+9/C-9 peptides.

N+9/C-9 peptide [12] = target: T12, N+9/C-9 peptide; test: ELISA, peptide on plate (FIG. 63)
Method: as §2

T1 sequence (P15531 whole entry): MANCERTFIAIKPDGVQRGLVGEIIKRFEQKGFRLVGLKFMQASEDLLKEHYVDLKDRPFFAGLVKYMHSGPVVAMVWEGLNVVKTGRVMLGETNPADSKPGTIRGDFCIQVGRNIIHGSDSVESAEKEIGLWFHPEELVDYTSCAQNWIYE

Binder: B1
binding result (dimeric NME1): no binding | binding result (NME7AB): no binding

binding result (N-19 peptide): no binding | binding result (N-19/C-5 peptide): no binding | binding result (N-10/C-5 peptide): no binding | binding result (C-10 peptide [1]): no binding | binding result (N-30 peptide): no binding | binding result (N-10 peptide [2]): no binding | binding result (N-26 peptide): no binding | binding result (PSMGFR peptide [3]): no binding | binding result [4]: no binding | binding result (N+20/C-27 peptide [5]): no binding | binding result (N+9/C-9 peptide [6]): binds
B2: monoclonal antibody 8A9 (antibody, V domains shown)
VH: EVELVESGGGLVQPGGSLRLSCATSGFTFTDHYMSWVRQPPGKALEWLGFIRNKANGYTTEYSASVKGRFTISRDNSQSILYLQMKTLRTEDSATYYCARPSDWDSWFAYWGQGTLVTVSA
VL: DVLMTQTPLSLPVSLGDQASISCRSSQSIVHSNGNTYLDWYLQKPGQSPKLLIYRVSNRFSGVPDRFSGSGSGTDFTLKISRVEAEDLGLYYCFQGSHVPWAFGGGTKLEIK
notes: Raised against the N+9/C-9 peptide; also called N+9/C-9 antibody 8A9

binding result [7]: binds | binding result (C-10 peptide [8]): no binding | binding result (PSMGFR peptide [9]): binds | binding result (N-10 peptide [10]): binds | binding result (N+20/C-27 peptide [11]): no binding | binding result (N+9/C-9 peptide [12]): no binding (tested: 10 ug/mL or 1 ug/mL)
B3: mouse monoclonal antibody MNE6 (antibody, V domains shown)
VH: EVKVVESGGDLVKPGGSLKLSCVVSGFTFSRYGMSWVRQTPGKRLEWVATISGGGTYIYYPDSVKGRFTISRDNAKNTLYLQMSSLKSEDTAMYHCTRDNYGRNYDYGMDYWGQGTSVTVSS
VL: QIVLTQSPAIMSASPGEEVTLTCSATSSVSYIHWFQQRPGTSPKLWIYSTSNLASGVPVRFSGSGYGTSYSLTISRMEAEDAATYYCQQRSSSPFTFGSGTKLEIK
notes: Mouse monoclonal raised against the PSMGFR peptide; also called Min-E6
